Laboratory results published in US6972319B1, “Pituitary adenylate cyclase activating peptide (PACAP)receptor 3 (R3) agonists and their pharmacological methods of use” (priority 1999, dated 2005).
No end group written: not given here.

T1: PACAP-R3 (human, UniProt P41587 24-438)
T1 sequence (looked up): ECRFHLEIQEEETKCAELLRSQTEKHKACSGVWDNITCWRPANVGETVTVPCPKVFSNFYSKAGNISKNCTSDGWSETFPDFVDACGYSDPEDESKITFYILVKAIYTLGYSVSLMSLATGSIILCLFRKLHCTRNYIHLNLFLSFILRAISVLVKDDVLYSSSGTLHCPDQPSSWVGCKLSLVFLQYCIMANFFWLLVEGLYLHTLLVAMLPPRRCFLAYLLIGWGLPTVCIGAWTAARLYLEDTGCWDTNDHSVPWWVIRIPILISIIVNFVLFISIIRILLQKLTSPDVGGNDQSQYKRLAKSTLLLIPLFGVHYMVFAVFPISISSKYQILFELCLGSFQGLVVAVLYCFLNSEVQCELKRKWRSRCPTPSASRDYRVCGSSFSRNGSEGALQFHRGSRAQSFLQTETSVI


Target: T1, PACAP-R3
Test: cell-based or functional assay

Row | R3 EC50 | R3 Selectivity | Binder
1 | 0.5 nM | 100 | HSDAVFTDNYTRLRKQVAVKKYLQSIKKK [R3P81]
2 | 0.09 nM | 100 | HSDAVFTDNYTRLRKQVAAKKYLQSILNK [R3P94]
3 | 0.3 nM | 30 | HSDAVFTDNYTRLRKQMAFKKYLNSIKNKR [R3P100]
4 | 0.23 nM | 190 | HSDAVFTDNYTRLRKQMAVKKYLNSIKKKR [R3P57]
5 | 0.8 nM | 140 | HSDAVFTDNYTRLRKQIAAKKYLQTIKK [R3P61]
6 | 0.44 nM |  | HSDAVFTDNYTRLRKQVAVKKYLQSIKKKR [R3P80]
7 | 2.3 nM | 7 | HSDGIFTDSYSRYRKQLAAKKYLADVKK [R3P38]
8 | 1.8 nM | 100 | HSDAVFTDNYTRLRKQVAAKKYLNSIKK [R3P62]
9 | 4 nM | 2 | HSDGIFTDSYSRYRKQMAVKKYLAAVKKYLAAVRHG-NH2 [R3P17]
10 | 80 nM | 3 | HSDGIFTESYSRYRKQMAVKKYLAALKKKRYKQRVKNK [R3P6]
11 | 0.8 nM | 110 | HSDAVFTDNYTRLRKQVAAKKYLQSIKNK [R3P86]
12 | 10 nM | 1.4 | HSDGIFTDSYSRYRKQMAVKKYLAAVKQGGT-NH2 [R3P16]
13 | 0.5 nM | 2 | HSDGIFTDSYSRYRKQLAVKKYLAAVKK [R3P39]
14 | 2 nM | 20 | HSDAVFTDNYTRLRKQMAVKKYLNSIKKGGT [R3P9]
15 | 1 nM | 40 | HSDAVFTDNYTRLRKQMAEKKYLNSIKNKR [R3P99]
16 | 3 nM | > 300 | Ac-HSDAVFTENYTKLRKQLAAKKYLNDLKKGGT (ends and bridges not checked) [R3P2]
17 | 0.14 nM | 40 | HSDAVFTDNYTRLRKQVAAKKYLQSILNKR [R3P93]
18 | 1.4 nM | 1.5 | HSDAVFTDNYTRLRKQMAVKKYLNSIKK-NH2 [R3P8]
19 | 0.32 nM | 170 | HSDAVFTDNYTRLRKQMAVKKYLNSIKKK [R3P58]
20 | 0.08 nM | 60 | HSDAVFTDNYTRLRKQVAAKKYLQSILKKRY [R3P83]
21 | 0.02 nM | 100 | HSDAVFTDNYTRLRKQVAAKKYLQSILNKRY [R3P92]
22 | 0.2 nM | 3 | HSDAVFTDNYTRLRKQVAVKKYLQSILKKRY [R3P87]
23 | 0.6 nM | 130 | HSDAVFTDNYTRLRKQMAAKKYLNSIKNKR [R3P65]
24 | 0.75 nM | 130 | HSDAVFTENYTKLRKQLAAKKYLNDLKKGGT [R3P3]
25 | 0.06 nM | 15 | HSDAVFTDNYTRLRKQVAVKKYLQSILKK [R3P89]
26 | 0.7 nM | 2 | HSDGIFTDSYSRYRKQMAVKKYLAAVKK [R3P40]

Row | R3 EC50 | R3 Selectivity | Binder
27 | 0.4 nM | 500 | HSDAVFTDNYTRLRKQVAAKKYLQSIKKKR [R3P77]
28 | 0.43 nM | 23 | HSDAVFTDNYTRLRKQLAAKKYLNDILKGGT [R3P23]
29 | 7 nM | 1 | HSDAVFTDNYTRLRKQLAVKKYLNDILKGGT [R3P28]
30 | 0.8 nM | 8 | HSDAVFTDNYTRLRKQLAAKKYLNDILNGGT [R3P27]
31 | 0.06 nM | 40 | HSDAVFTDNYTRLRKQVAAKKYLQSILKKR [R3P84]
32 | 0.18 nM | 30 | HSDAVFTDNYTRLRKQVAAKKYLQSILKK [R3P85]
33 | 1.1 nM | 230 | HSDAVFTDNYTRLRKQVAAKKYLNSIKKKR [R3P78]
34 | 4 nM | 18 | HSDGIFTDSYSRYRKQLAAKKYLADVKKGGT [R3P37]
35 | 1 nM | 120 | HSDAVFTDNYTRLRKQVAAKKYLQSIKK [R3P60]
36 | 0.08 nM | 12 | HSDAVFTDNYTRLRKQVAVKKYLQSILKKR [R3P88]
37 | 7 nM | 30 | HSDAVFTENYTKLRKQLAAKKYLNDLKK [R3P5]
38 | 4 nM | 0.5 | HSDAVFTENYTRLRKQMAVKKYLNSLKK-NH2 [R3P7]
39 | 0.15 nM | 70 | HSDAVFTDNYTRLRKQMAVKKYLNSIKNKRY [R3P59]
40 | 0.09 nM | 660 | HSDAVFTDQYTRLRKQMAAKKYLNSIKNKRY [R3P71]
41 | 0.4 nM | > 250 | HSDAVFTDNYTRLRKQMAAKKYLNTIKNKRY [R3P70]
42 | 0.5 nM | 190 | HSDAVFTDNYTRLRKQMAAKKYLQSIKNKRY [R3P69]
43 | 0.4 nM | 250 | HSDAVFTDNYTRLRKQVAAKKYLQSIKNKRY [R3P66]
44 | 0.3 nM | 330 | HSDAVFTDNYTRLRKQLAAKKYLNTIKNKRY [R3P67]
45 | 0.4 nM | 23 | HSDAVFTDNYTRLRKQVAVKKYLQSIKNKRY [R3P82]
46 | 0.3 nM | 170 | HSDAVFTDNYTRLRKQMAAHKYLNSIKNKRY [R3P73]
47 | 0.5 nM |  | HSDAVFTDNYTRLRKQVAAKKYLNSIKNKRY [R3P79]
48 | 0.5 nM |  | HSDAVFTDNYTRLRKQVAAKKYLNSIKNKRY [R3P68]
49 | 0.6 nM | 150 | HSDAVFTDNYTRLRKQMAAKHYLNSIKNKRY [R3P74]
50 | 0.16 nM | > 600 | HSDAVFTDQYTRLRKQLAAKKYLNTIKNKRY [R3P72]
51 | 0.3 nM | > 500 | HSDAVFTDQYTRLRKQLAAHKYLNTIKNKRY [R3P75]
